What was measured:
Assay type in all cases: biochemical
[1] = Reductive amination, spectrophotometric assay at 340 nm; details: for Reductive amination specific activity: maximum specific activity, nonlinear fit; for Amination Activity 40 mM MIBK, kcat: 500 mM NH4Cl/NH4OH pH 9.6, 200 μM NADH, 25° C.
Experimental: (§1) Activity of purified proteins was measured using a spectrophotometric assay at 340 nm, corresponding to the cofactor nicotinamide adenine dinucleotide (NADH, ε340=6220 M^−1 cm^−1) (Dawson, et al., Clarendon Press, (1989). For reductive amination, reactions took place in 500 mM NH4Cl/NH4OH at pH 9.6, with 200 μM NADH and 20 mM of the ketone substrate, unless otherwise specified. For oxidative deamination, reactions took place in 0.1 M NaHCO3/Na2CO3 buffer at pH 10.0, with 1 mM NAD+ with 10 mM of the amine substrate of interest. All reactions were performed at 25° C. unless otherwise specified. Enzyme was added in 10 μL aliquots in dilute concentrations. Enzyme concentrations varied upon activity levels with the substrate present, but were dilute enough to ensure linear conversion kinetics over the analytical time period (10 min to 30 min). Specific activities were then calculated from the stoichiometric conversion of cofactor as determine by the change in absorbance at 340 nm over time.

[2] = Oxidative deamination, spectrophotometric assay at 340 nm; details: for Oxidative deamination specific activity: maximum specific activity, 1,3-DMBA; for Deamination Activity 40 mM 1,3-DMBA, kcat: 0.1M Glycine pH 10.0, 1 mM NAD+, 25° C.
Experimental: as §1, with “For oxidative deamination, reactions took place in 0.1 M NaHCO3/Na2CO3 buffer at pH 10.0, with 1 mM NAD+ with 10 mM of the amine substrate of interest.” left out

[3] = as above; details: 20 mM substrate
Experimental: as §1, with “For oxidative deamination, reactions took place in 0.1 M NaHCO3/Na2CO3 buffer at pH 10.0, with 1 mM NAD+ with 10 mM of the amine substrate of interest.” left out
The enantioselectivity was initially estimated by measuring the deamination activity toward individual enantiomers of methylbenzylamine (MBA). […] A preference towards (R)-MBA over the corresponding (S)-enantiomer was evident in the discrepancies between the deamination activities of 0.586 U mg^−1 and 0.002 U mg^−1, respectively. These preliminary results were corroborated through direct measurement of the enantioselectivity of the MIBK amination in producing chiral 1,3-DMBA.

[4] = Reductive amination of PFPA, spectrophotometric assay at 340 nm; details: 500 mM NH4Cl/NH4OH pH 9.6, 200 μM NADH; for kcat, amination of PFPA: apparent; for Km: read-out: KM, amination of PFPA
Experimental: as §1
The activity of the purified protein was evaluated using a spectrophotometric assay at 340 nm as described in Section 3.2.3 at 25° C. in various concentrations of NH4Cl/NH4OH buffer pH 9.6.
Active variants were identified by the rate of change in absorbance at 340 nm, corresponding to the fastest activity. […] Some variants consumed the cofactor too quickly (<5 min) to be observed over multiple time points, and gave low absorbance in the initial time point. These variants were included for further characterization. The successful variants were sequenced (MWG Operon), and each unique sequence was expressed in pET28a/BL21 for histag purification and determination of kcat and KM values with PFPA.

[5] = MIBK substrate, read-out: KM (reductive amination)
[6] = purified LeuDH library 10/11 hits
[7] = purified LeuDH library 10/11 hits, read-out: Amination of MIBK KM
[8] = 1,3-DMBA substrate, read-out: KM (oxidative deamination)
[9] = purified LeuDH library 10/11 hits, read-out: Deamination of 1,3-DMBA KM

B1: K67M: LeuDH single variant, library 1 (protein, listed as Bacillus stearothermophilus)
chain: ELFQYMEKYDYEQVLFCQDKESGLKAIIVIHDTTLGPALGGTRMWMYNSEEEALEDALRLARGMTYMNAAAGLNLGGGKTVIIGDPRKDKNEAMFRAFGRFIQGLNGRYITAEDVGTTVADMDIIYQETDYVTGISPEFGSSGNPSPATAYGVYRGMKAAAKEAFGSDSLEGKVVAVQGVGNVAYHLCRHLHEEGAKLIVTDINKEAVARAVEEFGAKAVDPNDIYGVECDIFAPCALGGIINDQTIPQLKAKVIAGSADNQLKEPRHGDMIHEMGIVYAPDYVINAGGVINVADELYGYNRERAMKKIEQIYDNIEKVFAIAKRDNIPTYVAADRMAEERIETMRKARSQFLQNGHHILSRRRAR
activity for reductive amination ([1]; MIBK): 0.2 mU mg^−1 | Reductive amination specific activity ([1]; MIBK): 0.0002 U mg^−1 protein | activity in the oxidative deamination of racemic 1,3-DMBA [2]: 3.4 mU mg^−1 | Oxidative deamination specific activity [2]: 0.0034 U mg^−1 protein

B2: K67M/E113V/N261V/V290C: LeuDH-AmDH variant, SEQ ID NO:8, library 10 (protein)
chain: ELFQYMEKYDYEQVLFCQDKESGLKAIIVIHDTTLGPALGGTRMWMYNSEEEALEDALRLARGMTYMNAAAGLNLGGGKTVIIGDPRKDKNEAMFRAFGRFIQGLNGRYITAVDVGTTVADMDIIYQETDYVTGISPEFGSSGNPSPATAYGVYRGMKAAAKEAFGSDSLEGKVVAVQGVGNVAYHLCRHLHEEGAKLIVTDINKEAVARAVEEFGAKAVDPNDIYGVECDIFAPCALGGIINDQTIPQLKAKVIAGSADVQLKEPRHGDMIHEMGIVYAPDYVINAGGCINVADELYGYNRERAMKKIEQIYDNIEKVFAIAKRDNIPTYVAADRMAEERIETMRKARSQFLQNGHHILSRRRAR
Specific activity, acetophenone ([1]; 20 mM substrate): 3.5 mU mg^−1 protein | Specific activity, cyclohexanone ([1]; 20 mM substrate): 18.8 mU mg^−1 protein | Specific activity, ethyl pyruvate ([1]; 20 mM substrate): 19.8 mU mg^−1 protein | Specific activity, ethyl-3-oxohexanoate ([1]; 20 mM substrate): 6.4 mU mg^−1 protein | Specific activity, methyl acetoacetate ([1]; 20 mM substrate): 4.5 mU mg^−1 protein | Km [1, 5]: 10.3 mM | Reductive amination specific activity ([1]; MIBK): 0.089 U mg^−1 protein | Amination of MIBK Vmax [1, 6]: 0.084 ± 0.01 | Km [1, 7]: 21 ± 8.5 mM | Specific activity, (R/S)-MBA ([2]; 40 mM racemic, 20 mM of each enantiomer): 484.0 mU mg^−1 protein | Km [2, 8]: 30.9 mM | Oxidative deamination specific activity [2]: 2.81 U mg^−1 protein | Deamination of 1,3-DMBA Vmax [2, 6]: 2.894 ± 0.44 | Km [2, 9]: 33.1 ± 13 mM | Specific activity, (R)-MBA [3]: 476.5 mU mg^−1 protein | Specific activity, (S)-MBA [3]: 5.0 mU mg^−1 protein

B3: K67M/E113V/N261C/V290C: LeuDH-AmDH variant, SEQ ID NO:9, library 10 (protein)
chain: ELFQYMEKYDYEQVLFCQDKESGLKAIIVIHDTTLGPALGGTRMWMYNSEEEALEDALRLARGMTYMNAAAGLNLGGGKTVIIGDPRKDKNEAMFRAFGRFIQGLNGRYITAVDVGTTVADMDIIYQETDYVTGISPEFGSSGNPSPATAYGVYRGMKAAAKEAFGSDSLEGKVVAVQGVGNVAYHLCRHLHEEGAKLIVTDINKEAVARAVEEFGAKAVDPNDIYGVECDIFAPCALGGIINDQTIPQLKAKVIAGSADCQLKEPRHGDMIHEMGIVYAPDYVINAGGCINVADELYGYNRERAMKKIEQIYDNIEKVFAIAKRDNIPTYVAADRMAEERIETMRKARSQFLQNGHHILSRRRAR
Km [1, 5]: 21.6 mM | Reductive amination specific activity ([1]; MIBK): 0.236 U mg^−1 protein | Amination of MIBK Vmax [1, 6]: 0.236 ± 0.04 | Km [1, 7]: 21.6 ± 11.5 mM | Km [2, 8]: 14.8 mM | Oxidative deamination specific activity [2]: 1.76 U mg^−1 protein | Deamination of 1,3-DMBA Vmax [2, 6]: 1.76 ± 0.20 | Km [2, 9]: 14.8 ± 6.1 mM

B4: K67M, E113V: LeuDH-AmDH variant, SEQ ID NO:5 (protein)
chain: ELFQYMEKYDYEQVLFCQDKESGLKAIIVIHDTTLGPALGGTRMWMYNSEEEALEDALRLARGMTYMNAAAGLNLGGGKTVIIGDPRKDKNEAMFRAFGRFIQGLNGRYITAVDVGTTVADMDIIYQETDYVTGISPEFGSSGNPSPATAYGVYRGMKAAAKEAFGSDSLEGKVVAVQGVGNVAYHLCRHLHEEGAKLIVTDINKEAVARAVEEFGAKAVDPNDIYGVECDIFAPCALGGIINDQTIPQLKAKVIAGSADNQLKEPRHGDMIHEMGIVYAPDYVINAGGVINVADELYGYNRERAMKKIEQIYDNIEKVFAIAKRDNIPTYVAADRMAEERIETMRKARSQFLQNGHHILSRRRAR
Reductive amination specific activity ([1]; MIBK): 0.015 U mg^−1 protein | Km [2, 8]: 48 mM | Oxidative deamination specific activity [2]: 0.65 U mg^−1 protein

B5: K77W N276E: PheDH-AmDH double variant, SEQ ID NO:3; PheDH library 1 hit 7F10 (protein)
chain: SLVEKTSIIKDFTLFEKMSEHEQVVFCNDPATGLRAIIAIHDTTLGPALGGCRMQPYNSVEEALEDALRLSKGMTYWCAASDVDFGGGKAVIIGDPQKDKSPELFRAFGQFVDSLGGRFYTGTDMGTNMEDFIHAMKETNCIVGVPEAYGGGGDSSIPTAMGVLYGIKATNKMLFGKDDLGGVTYAIQGLGKVGYKVAEGLLEEGAHLFVTDINEQTLEAIQEKAKTTSGSVTVVASDEIYSQEADVFVPCAFGGVVNDETMKQFKVKAIAGSANEQLLTEDHGRHLADKGILYAPDYIVNSGGLIQVADELYEVNKERVLAKTKHIYDAILEVYQQAELDQITTMEAANRMCEQRMAARGRRNSFFTSSVKPKWDIRN
kcat, amination of PFPA [4]: 2.63 s⁻¹ | kcat, amination of PFPA ([4]; listed as 7F10): 2.631 ± 0.159 s⁻¹ | Km ([4]; listed as 7F10): 5.3 ± 0.6 mM | Km [4]: 5.32 mM

B6: Lys77Met: B. badius PheDH single variant (protein, listed as Bacillus badius)
chain: SLVEKTSIIKDFTLFEKMSEHEQVVFCNDPATGLRAIIAIHDTTLGPALGGCRMQPYNSVEEALEDALRLSKGMTYMCAASDVDFGGGKAVIIGDPQKDKSPELFRAFGQFVDSLGGRFYTGTDMGTNMEDFIHAMKETNCIVGVPEAYGGGGDSSIPTAMGVLYGIKATNKMLFGKDDLGGVTYAIQGLGKVGYKVAEGLLEEGAHLFVTDINEQTLEAIQEKAKTTSGSVTVVASDEIYSQEADVFVPCAFGGVVNDETMKQFKVKAIAGSANNQLLTEDHGRHLADKGILYAPDYIVNSGGLIQVADELYEVNKERVLAKTKHIYDAILEVYQQAELDQITTMEAANRMCEQRMAARGRRNSFFTSSVKPKWDIRN
Amination Activity 40 mM MIBK, kcat [1]: 0.0009 ± 0.000 s⁻¹ | Deamination Activity 40 mM 1,3-DMBA, kcat [2]: 0.0033 ± 0.000 s⁻¹

B7: Asn276Val: B. badius PheDH single variant (protein, listed as Bacillus badius)
chain: SLVEKTSIIKDFTLFEKMSEHEQVVFCNDPATGLRAIIAIHDTTLGPALGGCRMQPYNSVEEALEDALRLSKGMTYKCAASDVDFGGGKAVIIGDPQKDKSPELFRAFGQFVDSLGGRFYTGTDMGTNMEDFIHAMKETNCIVGVPEAYGGGGDSSIPTAMGVLYGIKATNKMLFGKDDLGGVTYAIQGLGKVGYKVAEGLLEEGAHLFVTDINEQTLEAIQEKAKTTSGSVTVVASDEIYSQEADVFVPCAFGGVVNDETMKQFKVKAIAGSANVQLLTEDHGRHLADKGILYAPDYIVNSGGLIQVADELYEVNKERVLAKTKHIYDAILEVYQQAELDQITTMEAANRMCEQRMAARGRRNSFFTSSVKPKWDIRN
Amination Activity 40 mM MIBK, kcat [1]: n.m. | Deamination Activity 40 mM 1,3-DMBA, kcat [2]: 0.0016 ± 0.000 s⁻¹

From US8835136B2, “Engineered amine dehydrogenases and methods of use thereof” (Georgia Tech Research Corporation, priority 2012, dated 2014)
